{"source": "paper PMC7782738", "binders": {"B1": {"name": "α-scorpion toxin LqhIII from the deathstalker scorpion Leiurus quinquestriatus hebraeus (natural protein)", "chain": "VRDGYIAQPENCVYHCFPGSSGCDTLCKEKGGTSGHCGFKVGHGLACWCNALPDNVGIIVEGEKCHS"}}, "key": {"[1]": {"molecular_target": "fully functional core construct of the rat cardiac sodium channel NaV1.5 (rNaV1.5C) (rat) (UniProt P15389)", "sequence (P15389 whole entry)": "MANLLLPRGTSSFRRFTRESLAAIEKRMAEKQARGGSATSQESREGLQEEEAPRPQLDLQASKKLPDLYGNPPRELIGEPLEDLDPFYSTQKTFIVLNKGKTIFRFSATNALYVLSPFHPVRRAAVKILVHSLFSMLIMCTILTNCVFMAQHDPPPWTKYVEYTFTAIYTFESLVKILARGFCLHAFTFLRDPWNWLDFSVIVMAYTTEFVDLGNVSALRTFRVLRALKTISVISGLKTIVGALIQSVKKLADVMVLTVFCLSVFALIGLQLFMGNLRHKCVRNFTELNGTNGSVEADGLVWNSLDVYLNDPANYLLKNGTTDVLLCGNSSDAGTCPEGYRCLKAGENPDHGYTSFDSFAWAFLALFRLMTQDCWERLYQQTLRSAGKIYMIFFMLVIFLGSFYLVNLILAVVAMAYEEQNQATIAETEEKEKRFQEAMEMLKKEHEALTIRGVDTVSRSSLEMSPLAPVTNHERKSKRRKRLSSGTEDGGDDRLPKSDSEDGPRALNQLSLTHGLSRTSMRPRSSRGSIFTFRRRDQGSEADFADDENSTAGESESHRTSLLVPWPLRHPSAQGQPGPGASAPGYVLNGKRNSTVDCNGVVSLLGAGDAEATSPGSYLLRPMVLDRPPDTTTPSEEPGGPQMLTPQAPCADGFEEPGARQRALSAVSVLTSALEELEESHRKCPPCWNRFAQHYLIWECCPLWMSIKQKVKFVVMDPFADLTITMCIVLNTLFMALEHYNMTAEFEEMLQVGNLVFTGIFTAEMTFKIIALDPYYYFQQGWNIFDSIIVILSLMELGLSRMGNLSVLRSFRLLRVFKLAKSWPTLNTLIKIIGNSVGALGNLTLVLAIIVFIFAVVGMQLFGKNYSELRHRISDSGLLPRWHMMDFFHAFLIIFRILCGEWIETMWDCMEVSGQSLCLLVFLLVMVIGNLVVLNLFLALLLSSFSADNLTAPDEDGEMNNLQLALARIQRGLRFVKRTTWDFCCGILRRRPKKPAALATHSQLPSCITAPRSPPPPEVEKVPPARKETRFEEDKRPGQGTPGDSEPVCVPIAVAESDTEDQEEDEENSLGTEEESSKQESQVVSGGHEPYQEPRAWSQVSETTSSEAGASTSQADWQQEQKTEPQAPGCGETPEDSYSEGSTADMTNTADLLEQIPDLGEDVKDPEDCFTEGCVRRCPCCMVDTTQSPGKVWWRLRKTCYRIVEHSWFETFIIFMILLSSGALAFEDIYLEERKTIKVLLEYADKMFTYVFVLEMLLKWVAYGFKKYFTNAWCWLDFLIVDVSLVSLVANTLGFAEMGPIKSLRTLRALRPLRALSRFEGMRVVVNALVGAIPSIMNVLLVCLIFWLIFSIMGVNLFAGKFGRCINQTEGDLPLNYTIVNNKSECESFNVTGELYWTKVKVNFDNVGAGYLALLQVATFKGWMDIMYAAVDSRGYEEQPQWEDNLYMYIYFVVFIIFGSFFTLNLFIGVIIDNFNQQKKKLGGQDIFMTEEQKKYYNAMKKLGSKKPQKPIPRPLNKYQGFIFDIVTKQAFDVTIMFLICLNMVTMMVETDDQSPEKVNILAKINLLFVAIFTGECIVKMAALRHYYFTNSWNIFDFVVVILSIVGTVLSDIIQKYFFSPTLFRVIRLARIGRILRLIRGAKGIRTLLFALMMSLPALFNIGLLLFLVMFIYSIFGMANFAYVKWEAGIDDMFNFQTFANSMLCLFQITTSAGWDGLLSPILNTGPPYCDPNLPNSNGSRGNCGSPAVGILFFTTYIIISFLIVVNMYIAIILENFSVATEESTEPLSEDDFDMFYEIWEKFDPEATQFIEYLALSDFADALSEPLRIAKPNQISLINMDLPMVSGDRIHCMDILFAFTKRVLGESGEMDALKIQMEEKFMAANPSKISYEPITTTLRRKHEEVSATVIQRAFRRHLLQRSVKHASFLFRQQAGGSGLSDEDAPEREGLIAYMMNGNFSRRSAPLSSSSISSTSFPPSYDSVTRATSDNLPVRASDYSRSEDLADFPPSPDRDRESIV"}, "[2]": {"molecular_target": "fully functional core construct of the rat cardiac sodium channel NaV1.5 (rNaV1.5C) (rat) (UniProt P15389)", "assay": "cryo-EM structure; purified rNaV1.5C (~1 mg/ml) mixed with 50 uM LqhIII and purified FGF12b and calmodulin, re-run on Superose-6 in 25 mM imidazole pH 6.0, 150 mM NaCl, 0.006% GDN; peak concentrated to 5 mg/ml; no membrane potential"}}, "data": [{"binder": "B1", "values": [{"measurement": "inhibition of fast inactivation: sodium current remaining 6 ms after the depolarizing pulse, whole-cell patch clamp of HEK293S GnTI- cells expressing rNaV1.5C, 1-1000 nM LqhIII", "setting": "[1]", "value": 11.4, "unit": "nM"}, {"measurement": "time course of the block of fast inactivation on perfusion of 100 nM LqhIII, cells held at -120 mV, single exponential fit", "setting": "[1]", "value": 11.3, "unit": "min"}, {"measurement": "stoichiometry N", "setting": "[2]", "value": 1}]}]}
